In patent US20200109211A1:

Target: human CD160 (CD160 GPI isoform) on cells (human) (UniProt O95971)
Experiment: flow cytometry, percentage of labelled YT2C2 NK cells, 0.39-50 nM; the text means weaker binding

Sequence of human CD160 (CD160 GPI isoform) on cells (human) (O95971 25-159 limits assumed): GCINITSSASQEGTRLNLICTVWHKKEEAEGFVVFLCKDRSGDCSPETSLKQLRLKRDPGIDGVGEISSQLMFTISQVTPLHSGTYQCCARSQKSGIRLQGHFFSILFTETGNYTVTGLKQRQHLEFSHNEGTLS

EC50, factor against H7 IgG4 (ELB01101): 2 fold
B1: Fab CH1 IgG1 D12 (Fab)
heavy: QVQLVQSGAEVKKPGASVKVSCKASGYTFSDFWMQWIRQAPGQGLEWIGAIYPGDDDARVTQKFRGRATLTADKSTSTAYMELSSLRSEDTAVYYCARRGIAAVVGGFDYWGQGTTLTVSSASTKGPSVFPLAPSSKSTSGGTAALGCLVKDYFPEPVTVSWNSGALTSGVHTFPAVLQSSGLYSLSSVVTVPSSSLGTQTYICNVNHKPSNTKVDKRV
light: EIVLTQSPATLSLSPGERATLSCRASQSISNHLHWYQQKPGQAPRLLIKYASQSISGIPARFSGSGSGTDFTLTISSLEPEDFAVYFCQQSNSWPLTFGGGTKVEIKRTVAAPSVFIFPPSDEQLKSGTASVVCLLNNFYPREAKVQWKVDNALQSGNSQESVTEQDSKDSTYSLSSTLTLSKADYEKHKVYACEVTHQGLSSPVTKSFNRGEC
